This is an account of results in the supplement of paper PMC9112550, “Optimization of the antimicrobial peptide Bac7 by deep mutational scanning” (BMC Biology, 2022).
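Also: peptides expressed intracellularly from a pBAD plasmid library in pooled LB shake-flask culture, induced with 0.3% L-arabinose, DNA abundance read by NGS, three biological replicates, DESeq2 with apeglm shrinkage.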

In this series the test system is Escherichia coli TOP10. In words: shrunken log2 fold change of peptide-encoding DNA abundance (4.5 h post-induction vs induction); higher = less antimicrobial activity (less host growth inhibition). As to conditions: time post-induction: 4.5 h; library: site-saturation at positions 5, 18, 19, 20.
Regarding RRIRMRPPRLPRPRPRPWWCPRP, the “shrunken log2 fold change” value turned out to be 0.0647.

For RRIRRRPPRLPRPRPRPAFNPRP, the “shrunken log2 fold change” value was 0.201.

With RRIRRRPPRLPRPRPRPMKAPRP, the “shrunken log2 fold change” value was 0.0483.

RRIRPRPPRLPRPRPRPYRDPRP: the “shrunken log2 fold change” value came to 0.0239.

For the sequence RRIRLRPPRLPRPRPRPAKYPRP, the “shrunken log2 fold change” value is -0.694.

As to RRIRKRPPRLPRPRPRPDARPRP, the “shrunken log2 fold change” value was -0.0173.

In the case of RRIRMRPPRLPRPRPRPYHYPRP, the “shrunken log2 fold change” value was -0.638.

With RRIRFRPPRLPRPRPRPHNCPRP, the “shrunken log2 fold change” value was -0.3.

Consider RRIRKRPPRLPRPRPRPSRPPRP, for which the “shrunken log2 fold change” value is 0.529.

Take RRIRLRPPRLPRPRPRPHFLPRP: the “shrunken log2 fold change” value was -0.499.

Consider RRIRGRPPRLPRPRPRPFDNPRP, for which the “shrunken log2 fold change” value worked out at 0.23.

Turning to RRIRARPPRLPRPRPRPQAIPRP, the “shrunken log2 fold change” value is 0.281.

Consider RRIRVRPPRLPRPRPRPKFDPRP, for which the “shrunken log2 fold change” value is 0.21.

On to RRIRKRPPRLPRPRPRPGSWPRP, for which the “shrunken log2 fold change” value is 0.571.

For RRIRKRPPRLPRPRPRPIMNPRP, the “shrunken log2 fold change” value is -0.119.

Take RRIRCRPPRLPRPRPRPRHWPRP: the “shrunken log2 fold change” value was 0.261.

Consider RRIRWRPPRLPRPRPRPAGQPRP, for which the “shrunken log2 fold change” value turned out to be 0.218.

Turning to RRIRERPPRLPRPRPRPDSVPRP, the “shrunken log2 fold change” value is -0.17.

As for RRIRQRPPRLPRPRPRPSRMPRP, the “shrunken log2 fold change” value is -0.34.

Take RRIRERPPRLPRPRPRPNRIPRP: the “shrunken log2 fold change” value is -0.0288.

Consider RRIRARPPRLPRPRPRPHMVPRP, for which the “shrunken log2 fold change” value is -0.069.

With RRIRIRPPRLPRPRPRPDAKPRP, the “shrunken log2 fold change” value was 0.0898.

In the case of RRIRCRPPRLPRPRPRPLSYPRP, the “shrunken log2 fold change” value is -1.29.

With RRIRYRPPRLPRPRPRPMEPPRP, the “shrunken log2 fold change” value is -0.0132.

Regarding RRIRHRPPRLPRPRPRPAPFPRP, the “shrunken log2 fold change” value is -0.257.

As to RRIRCRPPRLPRPRPRPWFWPRP, the “shrunken log2 fold change” value stood at 0.189.

For the sequence RRIRKRPPRLPRPRPRPLETPRP, the “shrunken log2 fold change” value came out at 0.361.

On to RRIRKRPPRLPRPRPRPYRWPRP, for which the “shrunken log2 fold change” value is -0.164.

For RRIRIRPPRLPRPRPRPCCVPRP, the “shrunken log2 fold change” value was -0.726.

As to RRIRHRPPRLPRPRPRPATKPRP, the “shrunken log2 fold change” value was -0.0317.

For the sequence RRIRPRPPRLPRPRPRPLYAPRP, the “shrunken log2 fold change” value was 0.0267.

As to RRIRSRPPRLPRPRPRPIWIPRP, the “shrunken log2 fold change” value is -0.0851.

As to RRIRSRPPRLPRPRPRPGHSPRP, the “shrunken log2 fold change” value is 0.0297.

In the case of RRIRARPPRLPRPRPRPNIYPRP, the “shrunken log2 fold change” value is -0.418.

Take RRIRDRPPRLPRPRPRPICEPRP: the “shrunken log2 fold change” value is 0.229.

In the case of RRIRRRPPRLPRPRPRPLMYPRP, the “shrunken log2 fold change” value was determined as 0.0279.

For the sequence RRIRVRPPRLPRPRPRPVWSPRP, the “shrunken log2 fold change” value was 0.754.

With RRIRYRPPRLPRPRPRPFTIPRP, the “shrunken log2 fold change” value is -0.00992.

RRIRGRPPRLPRPRPRPDHIPRP: the “shrunken log2 fold change” value came out at 0.199.

Regarding RRIRARPPRLPRPRPRPPMFPRP, the “shrunken log2 fold change” value came out at 0.283.

With RRIRYRPPRLPRPRPRPSCAPRP, the “shrunken log2 fold change” value was -0.921.

As for RRIRVRPPRLPRPRPRPRQPPRP, the “shrunken log2 fold change” value was 0.284.

For RRIRARPPRLPRPRPRPTSAPRP, the “shrunken log2 fold change” value is 0.684.

Consider RRIRFRPPRLPRPRPRPRATPRP, for which the “shrunken log2 fold change” value stood at 0.691.

For the sequence RRIRYRPPRLPRPRPRPAYLPRP, the “shrunken log2 fold change” value is -0.244.

Regarding RRIRLRPPRLPRPRPRPRDWPRP, the “shrunken log2 fold change” value came to 0.847.

Regarding RRIRIRPPRLPRPRPRPCPAPRP, the “shrunken log2 fold change” value is -0.247.

As for RRIRLRPPRLPRPRPRPPMTPRP, the “shrunken log2 fold change” value is 0.907.

For the sequence RRIRIRPPRLPRPRPRPMCVPRP, the “shrunken log2 fold change” value is -0.209.

As for RRIRFRPPRLPRPRPRPGNFPRP, the “shrunken log2 fold change” value is -0.133.
